Experimental data from patent US20170002051A1.

Columns and labels:
[1] = target: chicken CSF1R (chicken); experiment: cell-based or functional assay
[2] = target: porcine CSF1R (porcine) (UniProt K9IVS4); experiment: cell-based or functional assay

Row | Substance | survival/proliferation of BaF/3 cells expressing chicken CSF1R (Cell TiterGlo), EC50 [1] [µg/mL] | survival/proliferation of BaF/3 cells expressing porcine CSF1R (Cell TiterGlo), EC50 [2] [µg/mL]
1 | recombinant chicken CSF1 (active fragment of chicken CSF-1, expressed in E. coli from pTLW54, refolded) (ligand) | 0.02 | –
2 | recombinant human CSF1 (Sigma 6518) (from UniProt P09603 33-190) (ligand) | – | 0.03
3 | recombinant porcine CSF1 (from UniProt A0A287BPE2 36-189) (ligand) | – | 0.03
